30 molecules from patent publication US20220259593A1, “CONTROL OF MAMMALIAN GENE DOSAGE USING CRISPR” (The Regents of the University of California, priority 2019, published 2022) can be followed below.

B1: cr567 (nucleic acid)
guide: GTTTAAGAGCTAAGCTGGAAACAGCATAGCAAGTTTAAATAAGGCTAGTCCGTTATCAACTTGCGAAAGTGGCACCGAGTCGGTGCT
modifications: listed as DNA, chemistry not fully specified
B2: cr206 (nucleic acid)
guide: B1 guide with T61C, C64A, G65A, G79C
modifications: listed as DNA, chemistry not fully specified
B3: cr702 (nucleic acid)
guide: B1 guide with C64A, G65A, G72C
modifications: listed as DNA, chemistry not fully specified
B4: cr694 (nucleic acid)
guide: B1 guide with T53G, C64T, G65A
modifications: listed as DNA, chemistry not fully specified
B5: cr402 (nucleic acid)
guide: B1 guide with A23T, C64A, G65A
modifications: listed as DNA, chemistry not fully specified
B6: cr275 (nucleic acid)
guide: B1 guide with T61C, C64A, G65A, A68G, C73G, C76A, G82T, G85C
modifications: listed as DNA, chemistry not fully specified
B7: cr304 (nucleic acid)
guide: B1 guide with C60T, C64A, G69A
modifications: listed as DNA, chemistry not fully specified
B8: cr525 (nucleic acid)
guide: B1 guide with A59C, C64A, G65A, T70G, C76G, G82C
modifications: listed as DNA, chemistry not fully specified
B9: cr626 (nucleic acid)
guide: B1 guide with C64A, G65C, A78C
modifications: listed as DNA, chemistry not fully specified
B10: cr503 (nucleic acid)
guide: B1 guide with C64A, G65A, T84G
modifications: listed as DNA, chemistry not fully specified
B11: cr388 (nucleic acid)
guide: B1 guide with C64A, G65A, G72T, C73A, G85T, C86A
modifications: listed as DNA, chemistry not fully specified
B12: cr752 (nucleic acid)
guide: B1 guide with C64A, G65T, T87G
modifications: listed as DNA, chemistry not fully specified
B13: cr132 (nucleic acid)
guide: B1 guide with C64A, C76T, G82A
modifications: listed as DNA, chemistry not fully specified
B14: cr863 (nucleic acid)
guide: B1 guide with A23C, C64A, G65A
modifications: listed as DNA, chemistry not fully specified
B15: cr597 (nucleic acid)
guide: B1 guide with A59C, C64A, G65A, T70G, C73G, G77T, C81A, G85C
modifications: listed as DNA, chemistry not fully specified
B16: cr614 (nucleic acid)
guide: B1 guide with G18A, C64A, G65A
modifications: listed as DNA, chemistry not fully specified
B17: cr769 (nucleic acid)
guide: B1 guide with A32G, T53G, T54A, C64A, G65A
modifications: listed as DNA, chemistry not fully specified
B18: cr838 (nucleic acid)
guide: B1 guide with T46C, C64A, G65A
modifications: listed as DNA, chemistry not fully specified
B19: cr409 (nucleic acid)
guide: B1 guide with C22G, C64A, G65A
modifications: listed as DNA, chemistry not fully specified
B20: cr367 (nucleic acid)
guide: B1 guide with G44A, C50T, T62C, C64A, G65A, A67G, C73T, G85A
modifications: listed as DNA, chemistry not fully specified
B21: cr910 (nucleic acid)
guide: B1 guide with C64A, G65A, C73A, C76G, G82C, G85T
modifications: listed as DNA, chemistry not fully specified
B22: cr256 (nucleic acid)
guide: B1 guide with G29A, C64A, G65A
modifications: listed as DNA, chemistry not fully specified
B23: cr141 (nucleic acid)
guide: B1 guide with T46C, C64A
modifications: listed as DNA, chemistry not fully specified
B24: cr640 (nucleic acid)
guide: B1 guide with C64A, G65A, A74C, C76A, G82T, T84G
modifications: listed as DNA, chemistry not fully specified
B25: cr136 (nucleic acid)
guide: B1 guide with C45T, G48A, C64A, G65A, A74G, C75A, G83T, T84C
modifications: listed as DNA, chemistry not fully specified
B26: cr777 (nucleic acid)
guide: B1 guide with T53G, C64A, G65A
modifications: listed as DNA, chemistry not fully specified
B27: cr387 (nucleic acid)
guide: B1 guide with A47C, C64A, G65A
modifications: listed as DNA, chemistry not fully specified
B28: cr974 (nucleic acid)
guide: B1 guide with C64A, A78T
modifications: listed as DNA, chemistry not fully specified
B29: cr364 (nucleic acid)
guide: B1 guide with T61A, C64A, G65A
modifications: listed as DNA, chemistry not fully specified
B30: cr977 (nucleic acid)
guide: B1 guide with A59T, C64A, G65A, T70A, G77A, C81T
modifications: listed as DNA, chemistry not fully specified

Residue numbers refer to the chain shown, from its start.

The first data set has as its system K562 CRISPRi cells. The experiment in a line: Constant region variant library pooled growth screen, K562. Format: cell-based, human. As to conditions: sgRNA constant region variants; activity relative to the original, un-modified constant region cr995. From the text:
We calculated relative activities for each targeting sequence:constant region pair by normalizing its phenotype to that of the targeting sequence paired with the unmodified constant region, identifying 409 constant region variants that on average conferred intermediate activity (0.1-0.9, FIG. 5B). Ten variants selected for individual evaluation also mediated intermediate levels of mRNA knockdown (FIG. 6B). Mapping the activities of constant region variants with single base substitutions onto the structure recapitulated known relationships between constant region structure and function (FIG. 5C).
The sequences in the library of modified constant regions were derived from the sgRNA (F+E) optimized sequence (23) modified to include a BlpI site (15). Each modified constant region was paired with 36 sgRNA targeting sequences (3 sgRNAs targeting each of 10 essential genes and six non-targeting negative control sgRNAs). The cloning strategy (described below) allowed the mutation of most positions in the sgRNA constant region. A variety of modifications were made, including substitutions of all single bases not in the BlpI restriction site (which is used for cloning), double substitutions including all substitutions at base-paired position pairs not before or in the BlpI site, and a variety of triple, quadruple, and sextuple substitutions, including base-pair-preserving substitutions at adjacent base-pairs.
The library was ordered and cloned in two parts. One part consisted of ˜100 modifications to the eight bases upstream of the BlpI restriction site. Constant region variants with mutations in this section were paired with each of the 36 targeting sequences, ordered as a pooled oligonucleotide library (Twist Biosciences), and cloned into pCRISPRia-v2 as described above. The second part consisted of ˜900 modifications to the 71 bases downstream of the BlpI restriction site. This part was cloned in two steps. First, all 36 targeting sequences were individually cloned into pCRISPRia-v2 as described above. The vectors were then pooled at an equimolar ratio and digested with BlpI (NEB) and XhoI (NEB). The modified constant region variants were ordered as a pooled oligonucleotide library (Twist Biosciences), PCR amplified with Phusion polymerase (NEB), digested with BlpI (NEB) and XhoI (NEB), and ligated into the digested vector pool, in a manner identical to previously published protocols and as described above, except for the different restriction enzymes.
Screens with the compact mismatched sgRNA library and the constant region library were conducted largely as described above, with smaller modifications during the screening procedure and an updated sequencing library preparation protocol. Briefly, the libraries were transduced in duplicate into K562 CRISPRi (both libraries) or HeLa CRISPRi cells (compact mismatched sgRNA library) as described above. K562 replicates were maintained separately in 0.15 to 0.3 L of RPMI-1640 in 0.3 L spinner flasks for the course of the screen. HeLa replicates were maintained in sets of ten 15-cm plates. Cells were selected with puromycin as described above (K562: 1 day of 0.75 μg/mL and 1 day of 0.85 μg/mL; HeLa: 2 days of 0.8 μg/mL and 1 day of 1 μg/mL). The remainder of the screen was carried out at >1000× library coverage (K562 compact mismatched sgRNA library: >2000×; HeLa compact mismatched sgRNA library: >1000×; K562 constant region library: >2000×). Multiple samples were harvested after 4 to 8 days of growth. For the drug screen, 10 μM lovastatin (ApexBio) or an equivalent volume of DMSO (vehicle) was added to flasks at t=0, and 3 days later cells were pelleted and re-suspended in fresh medium. Lovastatin (12 μM) or DMSO was again added after 5 and 9 days of growth, with media exchanges 3 days after drug supplementation. Multiple samples were harvested after 4 to 8 days for the K562 and HeLa growth screens. […]
In turn, B1 came in with a Mean relative activity of 1.06.

Regarding B2, the Mean relative activity is recorded as 0.8946.

Regarding B3, the Mean relative activity is on record as 0.8977.

The molecule B4 returned a Mean relative activity of 0.8963.

In turn, B5 returned a Mean relative activity of 0.8977.

The molecule B6 had a Mean relative activity of 1.06.

Still in this data set, the particulars now being: sgRNA constant region variants; activity relative to the un-modified constant region cr995.
The molecule B7 came in with a Mean relative activity of 0.9285.

As for B8, the Mean relative activity amounted to 0.9205.

Regarding B9, the Mean relative activity is 0.9006.

B10 gave a Mean relative activity of 0.9079.

With B11, the Mean relative activity is 0.9188.

In turn, B12 returned a Mean relative activity of 0.9196.

As for B13, the Mean relative activity is reported as 0.9196.

Take B14: the Mean relative activity amounted to 0.9031.

B15 displayed a Mean relative activity of 0.9187.

In turn, B16 returned a Mean relative activity of 0.927.

With B17, the Mean relative activity is reported as 0.9268.

With B18, the Mean relative activity is on record as 0.9187.

Take B19: the Mean relative activity is recorded as 0.9158.

B20 showed a Mean relative activity of 0.8998.

In turn, B21 yielded a Mean relative activity of 0.9171.

B22 displayed a Mean relative activity of 0.9023.

B23 showed a Mean relative activity of 0.9018.

B24 returned a Mean relative activity of 0.9186.

B25 gave a Mean relative activity of 0.9172.

B26 yielded a Mean relative activity of 0.9022.

In turn, B27 registered a Mean relative activity of 0.9094.

In turn, B28 gave a Mean relative activity of 0.9235.

As for B29, the Mean relative activity is given as 0.9193.

B30 came in with a Mean relative activity of 0.9127.
